# Patent US20080280308A1
# Molecular target: light-activated rhodopsin (bovine) (UniProt P02699)
# Experiment: ELISA, MBP fusion on light-activated rhodopsin
# light-activated rhodopsin (bovine), sequence (P02699 whole entry, the tested form may be a part): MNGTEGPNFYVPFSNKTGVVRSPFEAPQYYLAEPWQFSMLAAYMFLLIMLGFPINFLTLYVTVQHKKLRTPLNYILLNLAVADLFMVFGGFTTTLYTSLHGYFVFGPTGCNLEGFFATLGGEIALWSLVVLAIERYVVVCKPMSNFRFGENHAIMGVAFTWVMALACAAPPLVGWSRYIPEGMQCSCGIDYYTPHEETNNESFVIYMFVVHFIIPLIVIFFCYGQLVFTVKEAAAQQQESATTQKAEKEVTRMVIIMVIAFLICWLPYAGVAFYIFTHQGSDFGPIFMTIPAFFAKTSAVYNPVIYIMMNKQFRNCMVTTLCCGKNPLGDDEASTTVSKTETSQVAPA
row,Molecule,IC50 [µM]
1,MBP-Gαt340-350K341R,6

# Molecular target: β2 adrenergic receptor
# Experiment: ELISA of panned Gs library clones on reconstituted receptor
row,Molecule,ELISA
1,PRPRLLRFKIP [AG19 …],0.361
2,QRLRLGPDELF [AG4 …],0.291
3,QRMPLRLFEFL [AG3 …],0.217
4,QRVHLRQDELL [BAR2 …],0.197
5,DRMHLWRFGLL [AG11 …],0.192
6,QWMDLRQHELL [BAR3 …],0.185
7,QRMNLGPCGLL [AG18 …],0.155
8,HRRHIGPFALL [BAR11 …],0.048
9,ERLHRRLFQLH [BAR8 …],0.047
10,QRLRLRKYRLF [BAR31 …],0.026

# The next lines start with the values.
row,ELISA,Molecule
1,0.435,QGMQLRRFKLR [AG1 …]
2,0.431,RWLHWQYRGRG [AG20 …]
3,0.33,QGEHLRQLQLQ [AG2 …]
4,0.218,QRIHRRPFKFF [BAR1 …]
5,0.19,QRMPLRQYELL [AG9 …]
6,0.079,NCMKFRSCGLF [BAR20 …]
7,0.054,QRLHLRGYEFL [AG13 …]
8,0.028,PCIQLGQYESF [BAR40 …]

# Molecular target: human thrombin receptor (PAR1) (human) (UniProt P25116)
# Sequence (P25116 42-425): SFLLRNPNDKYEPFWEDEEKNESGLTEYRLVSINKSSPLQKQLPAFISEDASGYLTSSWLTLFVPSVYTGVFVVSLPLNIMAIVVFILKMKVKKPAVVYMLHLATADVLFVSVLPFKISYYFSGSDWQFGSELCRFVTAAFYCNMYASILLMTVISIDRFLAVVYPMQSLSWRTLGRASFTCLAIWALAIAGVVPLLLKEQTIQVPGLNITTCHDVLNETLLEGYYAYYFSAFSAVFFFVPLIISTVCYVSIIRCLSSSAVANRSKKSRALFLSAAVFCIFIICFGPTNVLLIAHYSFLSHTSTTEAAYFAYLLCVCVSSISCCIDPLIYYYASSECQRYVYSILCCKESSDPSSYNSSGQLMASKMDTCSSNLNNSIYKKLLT
# Experiment: ELISA, purified MBP-Gαq on reconstituted PAR1 with thrombin receptor activating peptide
row,Molecule,IC50 [nM]
1,maltose binding protein-Gαq (MBP-Gαq),214
